The text below walks through data of PMC8130932 (2021).

In test [1] the target is RBD-6H (340-538; NITN.GPKK), biotinylated (SARS-CoV-2).
In test [2] the target is RBD-VLP (Spycatcher-mi3 VLP-particles conjugated with Spytagged-RBD recombinant protein) (SARS-CoV-2). Kind of test: ELISA.

B1: FD 11A (antibody, V domains shown)
VH: EVQLVESGGGVVQPGRSLRLSCAASGFTFSSYGMHWVRQAPGKGLEWVAVIWYDGSNKYYADSVKGRFTISRDNSKNTLYLQMNSLRAEDTAVYYCAKGPDILTGYYNYYYYGMDVWGQGTMVTVSS
VL: QSVLTQPPSVSGAPGQRVTISCTGSSSNIGAGYDVHWYQQLPGTAPKLLIYGNSNRPSGVPDRFSGSKSGTSASLAITGLQAEDEADYYCQSYDSSLSGFYVVFGGGTKLTVL
As to B1, the IC50 in test [1] was 164 nM.

B2: FI 1C (antibody, V domains shown)
VH: EVQLVESGGGLVKPGGSLRLSCAASGFTFSDYYMSWIRQAPGKGLEWVSYISSSGSTIYYADSVKGRFTISRDNAKNSLYLQMNSLRAEDTAVYYCARRSNRFLIAFDIWGQGTMVTVSS
VL: QSALTQPASVSGSPGQTITISCTGTSSDVGGYNYVSWYQQHPGKAPKLMIYEVSNRPSGVSNRFSGSKSGNTASLTISGLQAEDEADYYCSSYTSSSTLVVFGGGTKLTVP
Regarding B2, the IC50 in test [2] worked out at 3 nM; in test [1], 109 nM.

B3: FI 3A (antibody, V domains shown)
VH: EVQLLESGGGLIQPGGSLRLSCAASGFTVSSNYMSWVRQAPGKGLEWVSVIYSGGSTYYADSVKGRFTISRDNSKNTLYLQMNSLRAEDTAVYYCARDHVRPGMNIWGQGTMVTVSS
VL: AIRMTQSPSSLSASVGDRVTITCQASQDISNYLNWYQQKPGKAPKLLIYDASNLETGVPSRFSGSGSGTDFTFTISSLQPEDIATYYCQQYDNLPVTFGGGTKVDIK
On to B3, for which the IC50 in test [2] amounted to 3 nM; in test [1] it was 8 nM.

B4: EY 6A (antibody, V domains shown)
VH: EVQLVESGGGVVQPGRSLRLSCAASAFTFSSYDMHWVRQAPGKGLEWVAVISYDGSNKYYADSVKGRFTISRDNSKNTLYLQMNSLRAEDTAVYYCAKDGGKLWVYYFDYWGQGTLVTVSS
VL: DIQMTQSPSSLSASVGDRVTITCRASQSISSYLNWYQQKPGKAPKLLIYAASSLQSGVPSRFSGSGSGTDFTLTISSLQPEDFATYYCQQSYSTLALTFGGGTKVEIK
In test [1], B4 registered an IC50 of 189 nM.

B5: FD 5D (antibody, V domains shown)
VH: EVQLVESGGGLVQPGGSLRLSCAASGFTFSSYSMNWVRQAPGKGLEWVSYISSSSSTIYYADPVKGRFTISRDNAKNSLYLQMNSLRAEDTAVYYCASPGGITAAGTSVLFGYYGMDVWGQGTMVTVSS
VL: not shown
In test [1], B5 returned an IC50 of 34 nM.
